# B1: p60: baculovirus-expressed His-tagged S. purpuratus katanin p60 subunit (SEQ ID NO:1), AAA ATPase (protein, listed as Strongylocentrotus purpuratus)
# chain: MSVDEICENTKMGREYALLGNYETSLVYYQGVLQQIQKLLTSVHEPQRKHQWQTIRQELSQEYEHVKNITKTLNGFKSEPAAPEPAPNHGRAAPFSHHQHAAKPAAAEPARDPDVWPPPTPVDHRPSPPYQRAARKDPPRRSEPSKPANRAPGNDRGGRGPSDRRGDARSGGGGRGGARGSDKDKNRGGKSDKDKKAPSGEEGDEKKFDPAGYDKDLVENLERDIVQRNPNVHWADIAGLTEAKRLLEEAVVLPLWMPDYFKGIRRPWKGVLMVGPPGTGKTMLAKAVATECGTTFFNVSSASLTSKYHGESEKLVRLLFEMARFYAPSTIFIDEIDSICSKRGTGSEHEASRRVKSELLIQMDGVSGPSAGEESSKMVMVLAATNFPWDIDEALRRRLEKRIYIPLPEIDGREQLLRINLKEVPLADDIDLKSIAEKMDGYSGADITNVCRDASMMAMRRRIQGLRPEEIRHIPKEELNQPSTPADFLLALQKVSKSVGKEDLVKYMAWMEEFGSV
# modifications: His tag; katanin p60 subunit
# B2: p80: baculovirus-expressed His-tagged S. purpuratus katanin p80 subunit (SEQ ID NO:2), contains WD40 repeats (protein, listed as Strongylocentrotus purpuratus)
# chain: MATKRAWKLQELVAHSSNVNCLALGPMSGRVMVTGGEDKKVNLWAVGKQNCIISLSGHTSPVDSVKFNSSEELVVAGSQSGTMKIYDLEPAKIVRTLTGHRNSIRCMDFHPFGEFVASGSTDTNVKLWDVRRKGCIYTYKGHSDQVNMIKFSPDGKWLVTASEDTTIKLWDLTMGKLFQEFKNHTGGVTGIEFHPNEFLLASGSSDRTVQFWDLETFQLVSSTSPGASAVRSISFHPDGSYLFCSSQDMLHAFGWEPIRCFDTFSVFWGKVADTVIASTQLIGASFNATNVSVYVADLSRMSTTGIAQEPQSQPSKTPSGGAEEVPSKPLTASGRKNFVRERPHTTSSKQRQPDVKSEPERQSPTQDEGVKDDDATDIKDPDSYAKIFSPKTRVDHSPERNAQPFPAPLDVPGAQEPEPFKHPPKPAAAAAVAPVSRAPAPSASDWQPAQANPAPNRVPAATKPVPAQEVAPSRKPDPISTIIPSDRNKPANLDMDAFLPPAHAQQAPRVNAPASRKQSDSERIEGLRKGHDSMCQVLSSRHRNLDVVRAIWTAGDAKTSVESVVNMKDQAILVDILNIMLLKKSLWNLDMCVVVLPRLKELLSSKYENYVHTSCACLKLILKNFTSLFNQNIKCPPSGIDITREERYNKCSKCYSYLIATRGYVEEKQHVSGKLGSSFRELHLLLDQLE
# modifications: His tag; katanin p80 subunit
# B3: Katanin: microtubule-severing heterodimer of 60 kDa and 80 kDa subunits; values match recombinant p60/p80 (protein)
# chain 1: HHHHHHMSVDEICENTKMGREYALLGNYETSLVYYQGVLQQIQKLLTSVHEPQRKHQWQTIRQELSQEYEHVKNITKTLNGFKSEPAAPEPAPNHGRAAPFSHHQHAAKPAAAEPARDPDVWPPPTPVDHRPSPPYQRAARKDPPRRSEPSKPANRAPGNDRGGRGPSDRRGDARSGGGGRGGARGSDKDKNRGGKSDKDKKAPSGEEGDEKKFDPAGYDKDLVENLERDIVQRNPNVHWADIAGLTEAKRLLEEAVVLPLWMPDYFKGIRRPWKGVLMVGPPGTGKTMLAKAVATECGTTFFNVSSASLTSKYHGESEKLVRLLFEMARFYAPSTIFIDEIDSICSKRGTGSEHEASRRVKSELLIQMDGVSGPSAGEESSKMVMVLAATNFPWDIDEALRRRLEKRIYIPLPEIDGREQLLRINLKEVPLADDIDLKSIAEKMDGYSGADITNVCRDASMMAMRRRIQGLRPEEIRHIPKEELNQPSTPADFLLALQKVSKSVGKEDLVKYMAWMEEFGSV
# chain 2: HHHHHHMATKRAWKLQELVAHSSNVNCLALGPMSGRVMVTGGEDKKVNLWAVGKQNCIISLSGHTSPVDSVKFNSSEELVVAGSQSGTMKIYDLEPAKIVRTLTGHRNSIRCMDFHPFGEFVASGSTDTNVKLWDVRRKGCIYTYKGHSDQVNMIKFSPDGKWLVTASEDTTIKLWDLTMGKLFQEFKNHTGGVTGIEFHPNEFLLASGSSDRTVQFWDLETFQLVSSTSPGASAVRSISFHPDGSYLFCSSQDMLHAFGWEPIRCFDTFSVFWGKVADTVIASTQLIGASFNATNVSVYVADLSRMSTTGIAQEPQSQPSKTPSGGAEEVPSKPLTASGRKNFVRERPHTTSSKQRQPDVKSEPERQSPTQDEGVKDDDATDIKDPDSYAKIFSPKTRVDHSPERNAQPFPAPLDVPGAQEPEPFKHPPKPAAAAAVAPVSRAPAPSASDWQPAQANPAPNRVPAATKPVPAQEVAPSRKPDPISTIIPSDRNKPANLDMDAFLPPAHAQQAPRVNAPASRKQSDSERIEGLRKGHDSMCQVLSSRHRNLDVVRAIWTAGDAKTSVESVVNMKDQAILVDILNIMLLKKSLWNLDMCVVVLPRLKELLSSKYENYVHTSCACLKLILKNFTSLFNQNIKCPPSGIDITREERYNKCSKCYSYLIATRGYVEEKQHVSGKLGSSFRELHLLLDQLE
# B4: NSF: recombinant NSF, AAA ATPase cited for comparison (protein, UniProt P46459 1-744, looked up)
# Vesicle-fusing ATPase: MAGRSMQAARCPTDELSLTNCAVVNEKDFQSGQHVIVRTSPNHRYTFTLKTHPSVVPGSIAFSLPQRKWAGLSIGQEIEVSLYTFDKAKQCIGTMTIEIDFLQKKSIDSNPYDTDKMAAEFIQQFNNQAFSVGQQLVFSFNEKLFGLLVKDIEAMDPSILKGEPATGKRQKIEVGLVVGNSQVAFEKAENSSLNLIGKAKTKENRQSIINPDWNFEKMGIGGLDKEFSDIFRRAFASRVFPPEIVEQMGCKHVKGILLYGPPGCGKTLLARQIGKMLNAREPKVVNGPEILNKYVGESEANIRKLFADAEEEQRRLGANSGLHIIIFDEIDAICKQRGSMAGSTGVHDTVVNQLLSKIDGVEQLNNILVIGMTNRPDLIDEALLRPGRLEVKMEIGLPDEKGRLQILHIHTARMRGHQLLSADVDIKELAVETKNFSGAELEGLVRAAQSTAMNRHIKASTKVEVDMEKAESLQVTRGDFLASLENDIKPAFGTNQEDYASYIMNGIIKWGDPVTRVLDDGELLVQQTKNSDRTPLVSVLLEGPPHSGKTALAAKIAEESNFPFIKICSPDKMIGFSETAKCQAMKKIFDDAYKSQLSCVVVDDIERLLDYVPIGPRFSNLVLQALLVLLKKAPPQGRKLLIIGTTSRKDVLQEMEMLNAFSTTIHVPNIATGEQLLEALELLGNFKDKERTTIAQQVKGKKVWIGIKKLLMLIEMSLQMDPEYRVRKFLALLREEGASPLDFD
# Legend:
# [1] = system: Taxol-stabilized, rhodamine-labeled microtubules; test: Microscope-based microtubule severing assay; assay type: biochemical
# Protocol: Microscope-based severing assays were performed using previously published procedures (McNally and Vale (1993) Cell, 75: 419-429), except that microtubules were immobilized by first perfusing flow cells with a bacterially expressed kinesin mutant that binds strongly to microtubules but is unable to hydrolyze ATP (K560, G234A mutant; R. Vale and E. Taylor, unpublished results). Assays were performed in 20 mM Hepes (pH 7.5), 2 mM MgCl2, 1 mM ATP with an oxygen scavenger system consisting of glucose oxidase (220 μg/ml), catalase (36 μg/ml), glucose (22.5 mM), and 2-mercaptoethanol (71.5 mM). Images were captured using a cooled, slow-scan CCD (Photometerics) and processed using Adobe Photoshop.
# microtubules = test: DAPI fluorescence microtubule disassembly (severing) assay; assay type: biochemical, bovine; details: 2 μM microtubules, 0.2 μM protein
# Protocol: ATPase activity was measured by a modified malachite green method (Kodama et al. (1986) J. Biochem. 99: 1465-1472). ATPase reactions of 50-100 μl, were carried out in a buffer previously used for measuring the ATPase activity of native katanin [20 mM K-HEPES pH 8.0, 25 mM potassium glutamate 2 mM MgCl2, 10% glycerol (v/v), 0.02% Triton X-100 (w/v), 1 mg/ml BSA] (McNally and Vale (1993) Cell, 75: 419-429), except that soybean trypsin inhibitor (SBTI) was replaced by BSA as a carrier protein because SBTI increased background phosphate contamination. […] Microtubule concentration was determined by measuring the absorbance at 275 nm in 6 M guanidine HCl by using a molecular mass of 110 kDa and an extinction coefficient of 1.03 ml mg^−1 cm^−1 (Hackney (1988) Proc. Natl. Acad. Sci. USA, 85: 6314-6318). […]
# DAPI severing assays were performed using conditions where the change in fluorescence intensity was linear with the amount of tubulin polymer added (Heusele et al. (1987) Eur. J. Biochem. 165: 613-620). […] The reaction volume was 80 μL, and fluorescence intensity was measured by exciting at 370 nm, and measuring the emission at 450 nm using a model 8100 fluorimeter (SLM Instruments) in photon counting mode.
# [2] = ATPase assay (modified malachite green method); assay type: biochemical, Strongylocentrotus purpuratus
# Protocol: ATPase activity was measured by a modified malachite green method (Kodama et al. (1986) J. Biochem. 99: 1465-1472). ATPase reactions of 50-100 μl, were carried out in a buffer previously used for measuring the ATPase activity of native katanin [20 mM K-HEPES pH 8.0, 25 mM potassium glutamate 2 mM MgCl2, 10% glycerol (v/v), 0.02% Triton X-100 (w/v), 1 mg/ml BSA] (McNally and Vale (1993) Cell, 75: 419-429), except that soybean trypsin inhibitor (SBTI) was replaced by BSA as a carrier protein because SBTI increased background phosphate contamination. An ATP regenerating system, consisting of 0.5-1.0 mM phosphoenol pyruvate and 2 units of pyruvate kinase, was included to minimize the inhibition by ADP observed previously for native katanin (McNally and Vale (1993) Cell, 75: 419-429). Microtubules were prepared from bovine brain tubulin (Hyman et al. (1990) Meth. Enzymol. 196: 303-319; and Williams and Lee (1982) Meth Enzymol. 85B: 376-385). After assembly, microtubules were sedimented (230,000×g; 10 min), resuspended in ATPase buffer lacking BSA, and the polymers were resuspended by repeated passage through a 27 gauge needle. Microtubule concentration was determined by measuring the absorbance at 275 nm in 6 M guanidine HCl by using a molecular mass of 110 kDa and an extinction coefficient of 1.03 ml mg^−1 cm^−1 (Hackney (1988) Proc. Natl. Acad. Sci. USA, 85: 6314-6318). ATPase reactions were carried out at room temperature, and were initiated by addition of katanin.
# [3] = literature values for comparison; cited from earlier work
molecule,measurement,setting,value
B1,time until microtubules were completely disassembled,"[1]; 0.1 μM protein, 1 mM ATP",5 min
same,"rate of microtubule disassembly, DAPI fluorescence decrease (in words)",microtubules,half as active as p60/p80
same,microtubule concentration at peak ATP turnover stimulation,[2]; decreases at higher microtubule concentrations,~2 μM tubulin
B2,microtubule severing (in words),[1]; concentrations 5-fold higher than those used for p60 (0.5 μM),unable to sever microtubules
same,"rate of microtubule disassembly, DAPI fluorescence decrease (in words)",microtubules,did not cause a change in fluorescence
same,ATPase activity (in words),[2],no detectable ATPase activity
B3,basal ATPase activity,[2],0.3 ATP/katanin/sec
same,maximal microtubule-stimulated ATPase rate,[2],3 ATP/katanin/sec
B4,ATPase activity of other AAA family members,[3],0.08 ATP/sec

# From patent US6872537B1, “Assays for the detection of microtubule depolymerization inhibitors” (Regents of the University of California, priority 1998, dated 2005)
